{
  "source": "paper PMC10796322",
  "about": "“Molecular switching in transcription through splicing and proline-isomerization regulates stress responses in plants” (Nature Communications, 2024)",
  "key": {"[1]": {"biological_target": "T1, Med25-ACID R568A (Arabidopsis thaliana, UniProt Q7XYY2, R568A)", "T1 construct": "Med25-ACID532-680 R568A, N-terminal GST tag removed by TEV protease", "details": "SD, n = 2", "procedure": "To validate the proposed binding groove, we introduced an alanine in L1, replacing Arg568, which experienced a large CSP upon DREB2A binding, and determined the binding affinity using ITC with the high-affinity ABS-RIM fragment (DREB2A234-276, Fig. 1A). […] Thus, both NMR and thermodynamics supported the importance of the groove for the interaction with DREB2A.\nITC was performed on either a MicroCal ITC200 or a Malvern Pananalytical PEAQ-ITC. All ITC experiments were performed using a 50 mM HEPES pH 7.4, 100 mM NaCl and 0.5 mM tris(2-carboxyethyl)phosphine (TCEP) buffer. All experiments were performed using a ~ 1:10 cell to syringe protein concentration ratio. For high-affinity DREB2A fragments, the cell concentration was around 15 µM, while lower-affinity interaction experiments used higher concentrations. Samples were degassed by centrifuging at 20,000 x g for 20 minutes at experimental temperature. For three DREB2A fragments, experiments were performed over a range of temperatures to determine the ΔCp. Reported thermodynamic parameters are given at 25 °C. Data were analyzed using Origin and inhouse scripts using the one-set-of-sites model as documented by MicroCal and Origin. Dilution heats were fitted using an offset parameter. Most experiments were performed using a 0.5 µl initial injection, which was discarded in the analysis, followed by 18 injections of 2.0 µl. […]"}, "[2]": {"biological_target": "T2, Med25-ACID (Arabidopsis thaliana, UniProt Q7XYY2)", "T2 construct": "Med25-ACID532-680 (AT1G25540), expressed in E. coli with N-terminal GST tag removed by TEV protease", "details": "SD", "procedure": "All protein fragments were produced with an N-terminal Glutathione-S-transferase (GST) tag which was removed using Tobacco Etch Virus (TEV) protease and expressed from E.coli BL21 DE3 cells. DREB2A (AT5G05410) variants were expressed at 37 °C for three hours. The DREB2A splice variant (AT5G05410.2) was based on GenBank ID CD530293[21]. Due to stability and aggregation considerations, Med25-ACID (AT1G25540) was expressed with additional N-terminal residues. Expression of Med25-ACID532-680 was induced at high OD (0.8-1.0) and cultured overnight at 18 °C. Cells were resuspended in 20 mM Tris-HCl pH 8.0, 100 mM NaCl lysis buffer and sonicated. The lysate was incubated with glutathione Sepharose for one hour and washed using the lysis buffer. Aliquots of 5 mL resin were resuspended in 20 mL of lysis buffer with 5 mM dithiothreitol (DTT) and 1 mM EDTA and the protein was cleaved overnight at 4 °C using TEV protease. For DREB2A, cleaved protein was freeze-dried and buffer-changed to experimental buffer using size exclusion chromatography. Med25-ACID was further purified using cation exchange (Source 15 S) at pH 8.5 and the buffer was changed using size exclusion chromatography (Superdex S75 10/300 GL). Isotope-labeled proteins were produced by growing the initial culture in lysogenic broth and transferring to half volume M9 minimal media 30 min before induction.\nITC was performed on either a MicroCal ITC200 or a Malvern Pananalytical PEAQ-ITC. All ITC experiments were performed using a 50 mM HEPES pH 7.4, 100 mM NaCl and 0.5 mM tris(2-carboxyethyl)phosphine (TCEP) buffer. All experiments were performed using a ~ 1:10 cell to syringe protein concentration ratio. For high-affinity DREB2A fragments, the cell concentration was around 15 µM, while lower-affinity interaction experiments used higher concentrations. Samples were degassed by centrifuging at 20,000 x g for 20 minutes at experimental temperature. For three DREB2A fragments, experiments were performed over a range of temperatures to determine the ΔCp. Reported thermodynamic parameters are given at 25 °C. Data were analyzed using Origin and inhouse scripts using the one-set-of-sites model as documented by MicroCal and Origin. Dilution heats were fitted using an offset parameter. Most experiments were performed using a 0.5 µl initial injection, which was discarded in the analysis, followed by 18 injections of 2.0 µl."}, "[3]": {"biological_target": "T3, RCD1-RST (Arabidopsis thaliana, UniProt Q8RY59)", "T3 construct": "RCD1-RST", "T3 sequence (Q8RY59 499-572)": "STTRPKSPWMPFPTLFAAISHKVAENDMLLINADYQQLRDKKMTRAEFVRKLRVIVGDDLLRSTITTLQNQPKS", "details": "cited from earlier work", "from_the_text": "However, alternative splicing of DREB2A will shortcut such regulatory fine-tuning of competition by removing the RIM, thereby eliminating RCD1 as a repressor while leaving AD2 available (Fig. 7B). This provides an obvious mechanism for functional switching in a transcriptional pathway."}, "[4]": {"biological_target": "T4, Med25-ACID_(532-680), activator interaction domain (ACID) of mediator complex subunit 25 (Arabidopsis thaliana, UniProt Q7XYY2 532-680)", "T4 chain": "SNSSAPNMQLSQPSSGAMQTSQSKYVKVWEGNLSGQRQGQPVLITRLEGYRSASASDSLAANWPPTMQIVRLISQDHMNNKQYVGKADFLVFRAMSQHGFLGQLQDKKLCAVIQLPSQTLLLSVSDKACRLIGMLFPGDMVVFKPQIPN", "assay": "NMR; trans proline isomer, 10 °C"}, "[5]": {"biological_target": "T5, Med25-ACID_(532-680), activator interaction domain (ACID) of mediator complex subunit 25 (Arabidopsis thaliana, UniProt Q7XYY2 532-680)", "T5 construct": "15N- or 13C,15N-labelled in the NMR titrations; unlabelled in ITC, CEST and stopped-flow; also called AtMed25-ACID; ACID domain; source: E. coli BL21 DE3, purified (glutathione Sepharose, TEV cleavage, cation exchange, SEC); not shown: GST, N-terminal, cleaved", "T5 sequence (looked up)": "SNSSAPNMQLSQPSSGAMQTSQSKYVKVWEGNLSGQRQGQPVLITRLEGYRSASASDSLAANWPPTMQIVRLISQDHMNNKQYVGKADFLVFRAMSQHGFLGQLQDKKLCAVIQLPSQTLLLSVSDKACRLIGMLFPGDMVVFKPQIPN", "assay": "CEST NMR; 15N- and 13C-CEST; 500 µM 13C,15N-labeled DREB2A(234-276) or 1 mM DREB2A(234-276,P245A) with about 5% molar ratio of unlabeled Med25-ACID(532-680); pH 6.1, 20 mM phosphate, 100 mM NaCl; 25 °C and 10 °C; isomer Kd values estimated from the bound fractions and the overall ITC affinity", "details": "both partners purified"}, "[6]": {"biological_target": "T4, Med25-ACID_(532-680), activator …", "assay": "trans proline isomer, 10 °C"}, "[7]": {"biological_target": "T6, Med25-ACID R568A (Arabidopsis thaliana, UniProt Q7XYY2 532-680, R568A)", "T6 construct": "Mediator complex subunit 25 (Med25), Arabidopsis thaliana, AT1G25540, ACID domain construct with Arg568 in loop L1 replaced by alanine; the only Med25-ACID construct described is 532-680; source: E. coli BL21 DE3, purified (glutathione Sepharose, TEV cleavage, cation exchange, SEC); not shown: GST, N-terminal, cleaved", "T6 sequence (looked up)": "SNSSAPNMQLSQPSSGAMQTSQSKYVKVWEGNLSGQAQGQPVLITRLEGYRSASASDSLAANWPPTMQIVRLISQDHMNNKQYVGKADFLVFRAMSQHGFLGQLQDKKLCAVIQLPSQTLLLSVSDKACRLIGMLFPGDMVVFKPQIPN", "assay": "ITC; 25 °C; 50 mM HEPES pH 7.4, 100 mM NaCl, 0.5 mM TCEP; ~1:10 cell to syringe concentration ratio, cell around 15 µM for high-affinity fragments; one-set-of-sites model; which protein was in the cell is not stated", "details": "both partners purified"}, "[8]": {"biological_target": "T5, Med25-ACID_(532-680), activator …", "assay": "ITC; 25 °C; 50 mM HEPES pH 7.4, 100 mM NaCl, 0.5 mM TCEP; ~1:10 cell to syringe concentration ratio, cell around 15 µM for high-affinity fragments; one-set-of-sites model; which protein was in the cell is not stated", "details": "both partners purified"}, "[9]": {"biological_target": "T4, Med25-ACID_(532-680), activator …", "assay": "NMR; cis proline isomer, 10 °C"}, "[10]": {"biological_target": "T5, Med25-ACID_(532-680), activator …", "assay": "ITC; 25 °C; 50 mM HEPES pH 7.4, 100 mM NaCl, 0.5 mM TCEP; ~1:10 cell to syringe concentration ratio, cell around 15 µM for high-affinity fragments; one-set-of-sites model; which protein was in the cell is not stated", "details": "both partners purified", "remark": "listed apart in the source"}, "[11]": {"biological_target": "T4, Med25-ACID_(532-680), activator …", "assay": "cis proline isomer, 10 °C"}},
  "data": [
    {"molecule": "DREB2A195-276 [195–276]", "values": [
      {"measurement": "Kd", "setting": "[1]", "value": 3100, "unit": "nM"},
      {"measurement": "Kd", "setting": "[2]", "value": "450 ± 30", "unit": "nM"}
    ]},
    {"molecule": "DREB2A (fragment borders not printed)", "values": [
      {"measurement": "Kd", "setting": "[3]", "value": 12, "unit": "nM"}
    ]},
    {"molecule": "QDSLSVADYGWPNDVDQSHLDSSDMFDVDELLRDLNGDDVFAG (domain or fragment, Arabidopsis thaliana, UniProt O82132 234-276, looked up, 13C,15N-labelled in the CEST experiments; Populates cis (30 ± 1%) and trans Trp244-Pro245 isomers in the free state; also called bivalent ABS-RIM fragment; source: E. coli BL21 DE3, purified (glutathione Sepharose, TEV cleavage, SEC); not shown: GST, N-terminal, cleaved)", "note": "[DREB2A_(234-276) (ABS-RIM)]", "values": [
      {"measurement": "Kd", "setting": "[4]", "value": 190, "unit": "nM"},
      {"measurement": "KD of the cis-Pro245 isomer (estimated from CEST bound fractions and the ITC affinity)", "setting": "[5]", "value": "330 ± 20", "unit": "nM"},
      {"measurement": "KD of the trans-Pro245 isomer (estimated from CEST bound fractions and the ITC affinity)", "setting": "[5]", "value": "640 ± 30", "unit": "nM"},
      {"measurement": "koff", "setting": "[6]", "value": 24, "unit": "s⁻¹"},
      {"measurement": "Kd", "setting": "[7]", "value": "3100 ± 700", "unit": "nM"},
      {"measurement": "dH", "setting": "[7]", "value": "-11 ± 0.956", "unit": "kcal/mol"},
      {"measurement": "stoichiometry N", "setting": "[7]", "value": "0.9 ± 0.01"},
      {"measurement": "Kd", "setting": "[8]", "value": 510, "unit": "nM"},
      {"measurement": "dH", "setting": "[8]", "value": -12.1, "unit": "kcal/mol"},
      {"measurement": "stoichiometry N", "setting": "[8]", "value": 0.98},
      {"measurement": "Kd", "setting": "[9]", "value": 110, "unit": "nM"},
      {"measurement": "Kd", "setting": "[10]", "value": "520 ± 20", "unit": "nM"},
      {"measurement": "koff", "setting": "[11]", "value": 6, "unit": "s⁻¹"}
    ]}
  ]
}
